Measurements as given in patent US6753413.

Legend:
[1] = target: reconstituted Nclk (GST-p25/GST-Cdk5 complex) [GST: P08515]; experiment: cell-based or functional assay
GST-C48 (SEQ. ID NO 4) = test system: T1, GST-C48 (SEQ. ID NO 4)
T1 sequence: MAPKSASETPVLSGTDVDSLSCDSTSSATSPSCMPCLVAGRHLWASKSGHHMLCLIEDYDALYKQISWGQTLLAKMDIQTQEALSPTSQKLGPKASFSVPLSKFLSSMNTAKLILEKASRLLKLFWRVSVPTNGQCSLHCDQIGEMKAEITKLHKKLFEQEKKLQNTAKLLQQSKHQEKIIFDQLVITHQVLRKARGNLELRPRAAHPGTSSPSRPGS

GST-C53 (SEQ ID NO 6) = test system: T2, GST-C53 (SEQ ID NO 6)
T2 sequence: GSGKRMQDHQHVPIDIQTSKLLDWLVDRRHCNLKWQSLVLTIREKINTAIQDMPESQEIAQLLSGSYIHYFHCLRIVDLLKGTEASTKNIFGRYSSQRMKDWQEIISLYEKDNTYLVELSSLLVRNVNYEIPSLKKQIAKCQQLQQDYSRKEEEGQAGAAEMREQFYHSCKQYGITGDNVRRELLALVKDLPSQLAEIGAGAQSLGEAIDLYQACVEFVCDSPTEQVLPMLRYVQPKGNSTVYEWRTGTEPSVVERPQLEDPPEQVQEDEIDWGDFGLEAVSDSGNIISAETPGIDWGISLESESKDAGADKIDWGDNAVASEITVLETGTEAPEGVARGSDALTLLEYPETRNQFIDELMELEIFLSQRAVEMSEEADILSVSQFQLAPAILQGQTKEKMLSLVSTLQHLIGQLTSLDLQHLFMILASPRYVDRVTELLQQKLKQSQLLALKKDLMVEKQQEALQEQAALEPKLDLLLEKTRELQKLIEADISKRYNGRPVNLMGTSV

Row | inhibition of Cdk5 kinase activity [1] [%] | Substance | phosphorylation by reconstituted Nclk (autoradiograph, Mg[γ-32P]ATP) (GST-C48 (SEQ. ID NO 4)) | phosphorylation by reconstituted Nclk (autoradiograph, Mg[γ-32P]ATP) (GST-C53 (SEQ ID NO 6))
1 | < 20 | GST-C48 (SEQ. ID NO 4) (from UniProt Q9JLH5 1686-1903) |  | 
2 | < 20 | GST-C53 (SEQ ID NO 6) (from UniProt Q9JLH7 1-504) |  | 
3 |  | reconstituted Nclk (GST-p25/GST-Cdk5 complex) | the SEQ ID NO 4 (C48) and SEQ ID NO 6 (C53) proteins, but not the SEQ ID NO 2 (C42) protein, were phosphorylated by Cdk5 kinase | the SEQ ID NO 4 (C48) and SEQ ID NO 6 (C53) proteins, but not the SEQ ID NO 2 (C42) protein, were phosphorylated by Cdk5 kinase
